According to patent US11278600B2, “Human alpha-galactosidase variants” (Codexis, Inc., priority 2014, dated 2022):

B1: 345 (protein)
chain: LDNGLARTPTMGWLHWERFMCNLDCQEEPDSCISEKLFMEMAERMVSEGWKDAGYEYLCIDDCWMAPQRDSEGRLQADPQRFPHGIRQLANYVHSIGLKLGIYADVGNKTCAGFPGSFGYYDIDAQTFADWGVDLLKFDGCYCDSLENLADGYKHMSLALNRTGRSIVYSCEWPLYMWPFQKPNYTEIRQYCNHWRNFADIDDSWASIKSILDWTSRNPERIVDVAGPGGWNDPDMLVIGNFGLSWDQQVTQKALWAIMAAPLFMFNDLRHISPQAKALLQDKEVIAINPDPFGKQGYQLRKGDNFEGWERPLFGLAWAVAIINRQEIGGPRSYTIPVASLGEGVACNPACFITQLLPVKRKLGFYNWTSRLKSHINPTGTVLLQLENTMQMSLKDLL
modifications: Synthetic Polypeptide sequence of Variant No. 345 of mature Human GLA
B2: 344 (protein)
chain: LDNGLARTPTMGWLHWERFMCNLDCQEEPDSCISEKLFMEMAERMVSEGWKDAGYEYLCIDDCWMAPQRDSEGRLQADPQRFPHGIRQLANYVHSIGLKLGIYADVGNKTCAGFPGSFGYYDIDAQTFADWGVDLLKFDGCYCDSLENLADGYKHMSLALNRTGRSIVYSCEWPLYMWPFQKPNYTEIRQYCNHWRNFADIDDSWASIKSILDWTSRNQERIVDVAGPGGWNDPDMLVIGNFGLSWDQQVTQMALWAIMAAPLFMSNDLRHISPQAKALLQDKDVIAINQDPLGKQGYQLRKGDNFEVWERPLSGLAWAVAIINRQEIGGPRSYTIAVASLGKGVACNPACFITQLLPVKRQLGFYNWTSRLKSHINPTGTVLLQLENTMQMSLKDLL
modifications: Synthetic Polypeptide sequence of Variant No. 344 of mature Human GLA
B3: 348 (protein)
chain: LDNGLARTPTMGWLHWERFMCNLDCQEEPDSCISEKLFMEMAERMVSEGWKDAGYEYLCIDDCWMAPQRDSEGRLQADPQRFPHGIRQLANYVHSKGLKFGIYADVGNKTCAGFPGSFGYYDIDAQTFADWGVDLLKFDGCYCDSLENLADGYKHMSLALNRTGRSIVYSCEWPLYMWPFQKPNYTEIRQYCNHWRNFADIDDSWASVKSILDWTSFNQEKIVDVAGPGGWNDPDMLVIGNFGLSWNQQVTQMALWAIMAAPLFMSNDLRHISPQAKALLQDKDVIAINQDPLGKQGYQLRQGDNFEVWERPLSGLAWAVAIINRQEIGGPRSYTIAVASLGGGVACNPACFITQLLPVKRKLGLYNWTSRLKSHINPTGTVLLQLENTMQMSLKDLL
modifications: Synthetic Polypeptide sequence of Variant No. 348 of mature Human GLA
B4: 346 (protein)
chain: LDNGLARTPTMGWLHWERFMCNLDCQEEPDSCISEKLFMEMAERMVSEGWKDAGYEYLCIDDCWMAPQRDSEGRLQADPQRFPHGIRQLANYVHSIGLKLGIYADVGNKTCAGFPGSFGYYDIDAQTFADWGVDLLKFDGCYCDSLENLADGYKHMSLALNRTGRSIVYSCEWPLYMWPFQKPNYTEIRQYCNHWRNFADIDDSWASIKSILDWTSRNQERIVDVAGPGGWNDPDMLVIGNFGLSWNQQVTQMALWAIMAAPLFMSNDLRHISPQAKALLQDKDVIAINQDPLGKQGYQLRKGDNFEVWERPLSGLAWAVAIINRQEIGGPRSYTIAVASLGKGVACNPGCFITQLLPVKRQLGFYNWSSRLKSHINPTGTVLLQLENTMQMSLKDLL
modifications: Synthetic Polypeptide sequence of Variant No. 346 of mature Human GLA
B5: 349 (protein)
chain: LDNGLARTPTMGWLHWERFMCNLDCQEEPDSCISEKLFMEMAERMVSEGWKDAGYEYLCIDDCWMAPQRDSEGRLQADPQRFPHGIRQLANYVHSKGLKFGIYADVGNKTCAGFPGSFGYYDIDAQTFADWGVDLLKFDGCYCDSLENLADGYKHMSLALNRTGRSIVYSCEWPLYMWPFQKPNYTEIRQYCNHWRNFADIDDSWASVKSILDWTSFNQETIVDVAGPGGWNDPDMLVIGNFGLSWDQQVTQMALWAIMAAPLFMSNDLRHISPQAKALLQDKDVIAINQDPLGKQGYQLRQGDNFEVWERPLSGLAWAVAIINRQEIGGPRSYTIAVASLGKGVACNPACFITQLLPVKRKLGLYNWTSRLKSHINPTGTVLLQLENTMQMSLKDLL
modifications: Synthetic Polypeptide sequence of Variant No. 349 of mature Human GLA
B6: 347 (protein)
chain: LDNGLARTPTMGWLHWERFMCNLDCQEEPDSCISEKLFMEMAERMVSEGWKDAGYEYLCIDDCWMAPQRDSEGRLQADPQRFPHGIRQLANYVHSIGLKLGIYADVGNKTCAGFPGSFGYYDIDAQTFADWGVDLLKFDGCYCDSLENLADGYKHMSLALNRTGRSIVYSCEWPLYMWPFQKPNYTEIRQYCNHWRNFADIDDSWASIKSILDWTSFNQERIVDVAGPGGWNDPDMLVIGNFGLSWNQQVTQMALWAIMAAPLFMSNDLRHISPQAKALLQDKDVIAINQDPLGKQGYQLRQGDNFEVWERPLSGLAWAVAIINRQEIGGPRSYTIPVASLGKGVACNPACFITQLLPVKRKLGFYNWSSRLKSHINPTGTVLLQLENTMQMSLKDLL
modifications: Synthetic Polypeptide sequence of Variant No. 347 of mature Human GLA
B7: 350 (protein)
chain: LDNGLARTPTMGWLHWERFMCNLDCQEEPDSCISEKLFMEMAERMVSEGWKDAGYEYLCIDDCWMAPQRDSEGRLQADPQRFPHGIRQLANYVHSKGLKFGIYADVGNKTCAGFPGSFGYYDIDAQTFADWGVDLLKFDGCYCDSLENLADGYKHMSLALNRTGRSIVYSCEWPLYMWPFQKPNYTEIRQYCNHWRNFADIDDSWASVKSILDWTSFNQETIVDVAGPGGWNDPDMLVIGNFGLSWDQQVTQMALWAIMAAPLFMSNDLRHISPQAKALLQDKDVIAINQDPLGKQGYQLRQGDNFEVWERPLSGLAWAVAVINRQEIGGPRSYTIAVASLGKGVACNPACFITQLLPVKRKLGFYNWTSRLKSHVNPTGTVLLQLENTMQMSLKDLL
modifications: Synthetic Polypeptide sequence of Variant No. 350 of mature Human GLA

Legend:
Assay type in all cases: biochemical
[1] = HTP-analysis of supernatants pretreated with acid (MUGal hydrolysis); conditions: challenge at pH 4.0; activity of the variant/activity of Rd3BB (SEQ ID NO: 13); yeast culture supernatant
Method in brief: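 MUGal hydrolysis was tracked by fluorescence (Ex 355 nm, Em 448 nm) after a 30-180 min reaction at 37° C. in pH 4.8 McIlvaine/citrate buffer, stopped with 1 M sodium carbonate. Beforehand, yeast (INVSc1) culture supernatants carrying GLA variants were held 1-3 h at 37° C. in acidic McIlvaine buffer, pH 3.3-4.3.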

[2] = HTP-analysis of yeast culture supernatants, no challenge (MUGal hydrolysis); conditions: activity of the variant/activity of Rd3BB (SEQ ID NO: 13), yeast culture supernatant
Method in brief: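 GLA variants were expressed in INVSc1 yeast grown in SD-Ura broth with glucose at 30° C., and culture supernatants were collected after 66-84 h. Supernatant was mixed with McIlvaine buffer pH 4.8 and MUGal (2 mM stock) in 50 mM citrate, 200 mM KCl, pH 4.6, incubated at 37° C. for 30-180 minutes, then quenched with sodium carbonate.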

[3] = HTP-analysis of supernatants pretreated with bovine serum (MUGal hydrolysis); conditions: activity of the variant/activity of Rd3BB (SEQ ID NO: 13), yeast culture supernatant
Method in brief: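 Yeast INVSc1 culture supernatants containing secreted GLA variants were mixed with bovine serum (20:80) and held 1 h at 37° C. Serum-treated samples then reacted with MUGal (4 mM stock) in citrate/McIlvaine buffer (pH 4.3/4.8) for 180 min at 37° C., were quenched with sodium carbonate, and read by fluorescence (Ex 355, Em 448 nm).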

[4] = HTP-analysis of supernatants pretreated with base (MUGal hydrolysis); conditions: challenge at pH 8.2; activity of the variant/activity of Rd3BB (SEQ ID NO: 13); yeast culture supernatant
Method in brief: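 GLA variants were secreted by transformed INVSc1 yeast grown 66-84 h at 30° C. Supernatants were exposed to neutral-to-basic buffers (pH 7.0-9.7) at 37° C for 1-18 h, then assayed with MUGal in acidic citrate/McIlvaine buffer, with fluorescence read after quenching.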

Row | Molecule | Relative Activity of GLA Variants After Challenge at pH 4.0 [1] | Relative Activity of GLA Variants After No Challenge (NC) [2] | Relative Activity of GLA Variants After Challenge with Serum [3] | Relative Activity of GLA Variants After Challenge at pH 8.2 [4]
1 | B1 | ++ (++ = >1.5 to 2.5 relative activity over Rd3BB (SEQ ID NO: 13)) | + (+ = 0.5 to 1.5 relative activity over Rd3BB (SEQ ID NO: 13)) | + (+ = 0.5 to 1.5 relative activity over Rd3BB (SEQ ID NO: 13)) | +++ (+++ = >2.5 relative activity over Rd3BB (SEQ ID NO: 13))
2 | B2 | + (+ = 0.5 to 1.5 relative activity over Rd3BB (SEQ ID NO: 13)) | + (+ = 0.5 to 1.5 relative activity over Rd3BB (SEQ ID NO: 13)) | ++ (++ = >1.5 to 2.5 relative activity over Rd3BB (SEQ ID NO: 13)) | + (+ = 0.5 to 1.5 relative activity over Rd3BB (SEQ ID NO: 13))
3 | B3 | + (+ = 0.5 to 1.5 relative activity over Rd3BB (SEQ ID NO: 13)) | + (+ = 0.5 to 1.5 relative activity over Rd3BB (SEQ ID NO: 13)) | + (+ = 0.5 to 1.5 relative activity over Rd3BB (SEQ ID NO: 13)) | + (+ = 0.5 to 1.5 relative activity over Rd3BB (SEQ ID NO: 13))
4 | B4 | + (+ = 0.5 to 1.5 relative activity over Rd3BB (SEQ ID NO: 13)) | + (+ = 0.5 to 1.5 relative activity over Rd3BB (SEQ ID NO: 13)) | + (+ = 0.5 to 1.5 relative activity over Rd3BB (SEQ ID NO: 13)) | ++ (++ = >1.5 to 2.5 relative activity over Rd3BB (SEQ ID NO: 13))
5 | B5 | + (+ = 0.5 to 1.5 relative activity over Rd3BB (SEQ ID NO: 13)) | + (+ = 0.5 to 1.5 relative activity over Rd3BB (SEQ ID NO: 13)) | + (+ = 0.5 to 1.5 relative activity over Rd3BB (SEQ ID NO: 13)) | ++ (++ = >1.5 to 2.5 relative activity over Rd3BB (SEQ ID NO: 13))
6 | B6 | − (− = <0.5 relative activity to Rd3BB (SEQ ID NO: 13)) | − (− = <0.5 relative activity to Rd3BB (SEQ ID NO: 13)) | − (− = <0.5 relative activity to Rd3BB (SEQ ID NO: 13)) | − (− = <0.5 relative activity to Rd3BB (SEQ ID NO: 13))
7 | B7 | ++ (++ = >1.5 to 2.5 relative activity over Rd3BB (SEQ ID NO: 13)) | + (+ = 0.5 to 1.5 relative activity over Rd3BB (SEQ ID NO: 13)) | + (+ = 0.5 to 1.5 relative activity over Rd3BB (SEQ ID NO: 13)) | +++ (+++ = >2.5 relative activity over Rd3BB (SEQ ID NO: 13))
